Data: the supplement of paper PMC10567573
± gives the standard deviation.

Assay: protein stability index of a GFP-peptide fusion (GPS, HEK-293T) (PSI 1-6); higher = more stable
[1] = treatment: DMSO, c terminus: a fixed tail appended
[2] = treatment: MLN4924 1 uM, 8 h, c terminus: a fixed tail appended
[3] = treatment: DMSO, c terminus: native
[4] = treatment: MLN4924 1 uM, 8 h, c terminus: native
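Further: 24-mer peptide tiles fused after GFP, lentivirally expressed, FACS-sorted into six equal bins by GFP/DsRed ratio, decoded by Illumina sequencing, PSI is the read-weighted mean bin number.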

| Sequence | protein stability index [1] | protein stability index [2] | protein stability index [3] | protein stability index [4] |
| --- | --- | --- | --- | --- |
| SNLSYHLEKNHPEEFCEFVKSNTE [ZBED1] | 4.72 ± 0.18 | 4.69 ± 0.29 | – | – |
| SPCLPEAEAMFAINADGVGDAKD [RAD51] | – | – | 5.38 ± 0.16 | 5.34 ± 0.14 |
| SPEVLRKDPYGKPVDLWACGVILY [CAMK2A] | 2.67 ± 0.56 | 2.49 ± 0.49 | – | – |
| SPEWDTVTPEAKNLINQMLTINPA [CAMK2B] | 3.84 ± 0.18 | 3.86 ± 0.21 | – | – |
| SPFSPGLFHRLDEDWDSALFAELG [ATF6] | 2.6 ± 0.28 | 2.44 ± 0.16 | – | – |
| SPLTLAACGGHVELAALLIERGAS [ANKRD17] | 2.48 ± 0.33 | 2.48 ± 0.31 | – | – |
| SPLYADPYTPPATSHRRVTDVRGL [PLEKHN1] | 3.76 ± 0.35 | 3.63 ± 0.35 | – | – |
| SPRTRGSWSQPQPLKAPCLNGDTT [RASAL3] | 3.92 ± 0.11 | 4.03 ± 0.23 | – | – |
| SPSHSPEHRRTARRTPPGQQRPHP [ELOA2] | 5.06 ± 0.18 | 5.06 ± 0.22 | – | – |
| SQIHNNGQSDFRPKNGRHAWIWHD [LOXL2] | 3.31 ± 0.35 | 3.22 ± 0.22 | – | – |
| SQIQGHKEMSKVWNDLRPKLSCLF [SNX8] | 2.2 ± 0.35 | 2.22 ± 0.22 | – | – |
| SRARSASSPRGMVRVCDLLLKKKP [ANKRD17] | 3.61 ± 0.39 | 3.51 ± 0.4 | – | – |
| SRRIYRCRNCINLQNEAQKRESFL [IQUB] | 2.17 ± 0.42 | 2.24 ± 0.2 | – | – |
| SSCVKILLDHNANIDIQNGFLLRY [ASB7] | 2.47 ± 0.43 | 2.5 ± 0.24 | – | – |
| SSEEFEDKWFRKIKDHFCPFENQF [C8orf76] | 2.87 ± 0.19 | 2.74 ± 0.5 | – | – |
| SSFFQQFFHCYCPVGFGRRTDPNG [CRY1] | 2.42 ± 0.52 | 2.11 ± 0.27 | – | – |
| SSGPARGIAIVSVLVILISIVIFC [KCNA3] | 2.21 ± 0.21 | 2.21 ± 0.28 | – | – |
| SSKSDADSGFLGLRPTSVDPALRR [NOP53] | 4.51 ± 0.2 | 4.51 ± 0.22 | – | – |
| SSNHGCQHECVNTDDSYSCHCLKG [MATN2] | 4.95 ± 0.08 | 5.1 ± 0.2 | – | – |
| SSPGPWGLEALAGGDLMPAPADPT [FCHO1] | 4.78 ± 0.4 | 4.65 ± 0.23 | – | – |
| SSPRSVDSYSSTQHVPEELDLSSS [ATF6] | 5.29 ± 0.52 | 5.4 ± 0.24 | – | – |
| SSPSNMLPVRPQTNALIGGPMPMS [CLINT1] | 3.85 ± 0.22 | 3.7 ± 0.25 | – | – |
| SSQERKFMEERELLGQDEETAMRK [RSPH3] | 5.47 ± 0.38 | 5.51 ± 0.3 | – | – |

| Sequence | protein stability index [1] | protein stability index [2] | protein stability index [3] | protein stability index [4] |
| --- | --- | --- | --- | --- |
| SSRIEQGEWGGRHPSWPWTRCLRM | 2.5 ± 0.19 | 2.67 ± 0.38 | – | – |
| SSSEQLQCCQTEIIELRRTVNALE [KRT36] | 3.58 ± 0.12 | 3.34 ± 0.38 | – | – |
| SSSQKEESPSTLQVLPDSESLPRS [MAGEA10] | 5.36 ± 0.23 | 5.4 ± 0.16 | – | – |
| SSSSRVLLRQQLMRAQAQEQERRE [TFE3] | 4.87 ± 0.3 | 5.02 ± 0.22 | – | – |
| SSSSSSSPTSGSPRGSHSSALERL [LURAP1L] | 4.83 ± 0.15 | 4.91 ± 0.14 | – | – |
| STCFTELQRDFLKQRPTKLKSLIR [OAS1] | 2.6 ± 0.17 | 2.66 ± 0.14 | – | – |
| STFIRRYSRYLNEKAFSYRQMAFD [SNAP91] | 2.11 ± 0.24 | 2.22 ± 0.28 | – | – |
| STSAVPNLFVPLNTNPKEVQEMRN [ADD1] | 4.53 ± 0.21 | 4.43 ± 0.28 | – | – |
| STSRHVMAPVMAHVDPEEPWSPCS [ADAMTS4] | 4.32 ± 0.14 | 4.41 ± 0.17 | – | – |
| SVAGWSLFSLNVISLTCVSVAFAV [SLC19A2] | 2.92 ± 0.15 | 3.21 ± 0.27 | – | – |
| SVDEQNALREVYAHAVLGQHSHVV [WEE1] | 3.42 ± 0.14 | 3.47 ± 0.33 | – | – |
| SVDPIAAFCSSDEELEDSKALLYL [RBBP5] | 3.94 ± 0.26 | 4.08 ± 0.36 | – | – |
| SVEEQLSLISGCPNIQEAVEGAMH [CRYL1] | 4.68 ± 0.17 | 4.64 ± 0.15 | – | – |
| SVLLGASNADQLMENIGAIQVLPK [KCNAB2] | 3.58 ± 0.095 | 3.6 ± 0.24 | – | – |
| SVNICGMNEHPVCSRTWTNRLCHQ [SPAG8] | 2.29 ± 0.26 | 2.36 ± 0.14 | – | – |
| SWLEENVHEVLQAVDAGDPAVEAC [TCF25] | 4.86 ± 0.14 | 4.84 ± 0.32 | – | – |
| SYQKPKEVVVAESELQKELKKVKT [DPCD] | 4.95 ± 0.36 | 5.25 ± 0.31 | – | – |
| TAHADEFDCPSELQHTQELFPQWH [STEAP1] | 3.79 ± 0.15 | 3.84 ± 0.07 | – | – |
| TCKASHITSSVFPSASLGKASSRK [FBXO34] | 3.62 ± 0.28 | 3.55 ± 0.2 | – | – |
| TDAHVWNKSVTLYTVKDKATGEVL [NLN] | 3.46 ± 0.6 | 3.36 ± 0.55 | – | – |
| TDKVGTEAAFHPIEEYMVHVEEHF [FUT8] | 4.07 ± 0.27 | 4.31 ± 0.33 | – | – |
| TDRPLLSTLEESVVRICCIRSFGH [SMG5] | 2.36 ± 0.24 | 2.08 ± 0.12 | – | – |
| TDSEHSDAEVSCTDNGTFNLSRGQ [RETREG3] | 5.24 ± 0.22 | 5.28 ± 0.22 | – | – |

| Sequence | protein stability index [1] | protein stability index [2] | protein stability index [3] | protein stability index [4] |
| --- | --- | --- | --- | --- |
| TEAGGVLMDVTGGPFDLMSRRVIA [IMPA1] | 3.22 ± 0.61 | 3.37 ± 0.42 | – | – |
| TEGPSLLNQKGTAVETEGSGSRHP [SLC2A12] | 5.43 ± 0.21 | 5.36 ± 0.43 | – | – |
| TEPSGRVAKKTPTKRSTLIISGVS [C2CD2L] | 3.76 ± 0.27 | 3.92 ± 0.34 | – | – |
| TEVVRDAVRKLKFARHIKKSEGQK [GULP1] | 3.65 ± 0.37 | 3.85 ± 0.29 | – | – |
| TEYQIVTDPGDVPAFLKWLSLASL [SLC2A12] | 2.26 ± 0.35 | 2.16 ± 0.42 | – | – |
| TFIPLEPLPQIPNLPFWVKEKANS [SPATS1] | 2.81 ± 0.19 | 3.04 ± 0.15 | – | – |
| TGREMHGKNWSKLCKDCQVIDGRN [TPPP] | 3.14 ± 0.16 | 3.49 ± 0.11 | – | – |
| TGWARKGLGNTWPGASGSAQSLDR [ATP23] | 4.17 ± 0.26 | 4.09 ± 0.16 | – | – |
| TIGASFMTKTVQYQNELHKFLIWD [RAB22A] | 2.5 ± 0.45 | 2.01 ± 0.16 | – | – |
| TIRGEVMFFKDRFYMRTNPFYPEV [MMP1] | 2.2 ± 0.39 | 2.21 ± 0.12 | – | – |
| TISVNQTRVNLSSDTESTDLPSST [DLC1] | 4.11 ± 0.15 | 4.41 ± 0.23 | – | – |
| TITSEVIEKCTTPLSDDHDEKYGV [CRY1] | 5.21 ± 0.12 | 4.99 ± 0.22 | – | – |
| TKPLAIHPCGDKNCPAHWLAQDWE [ADAMTSL2] | 2.73 ± 0.79 | 2.73 ± 0.12 | – | – |
| TLAQFPETLLGDPEKRTQYFDPLR [KCNA4] | 3.5 ± 0.31 | 3.6 ± 0.36 | – | – |
| TLERYMCSRFFIDFPDILEQQRKL [TENT5C] | 2.35 ± 0.16 | 2.37 ± 0.037 | – | – |
| TLPLQDRELGPEELDELQAAFEEF [CABP4] | 5.27 ± 0.23 | 5.27 ± 0.24 | – | – |
| TLTREQTERLSHQITSRVVSAATQ [RTN2] | 3.68 ± 0.19 | 3.75 ± 0.13 | – | – |
| TMARIRRVYVSGLMKGGADLFVEN [APMAP] | 2.2 ± 0.3 | 2.07 ± 0.25 | – | – |
| TMLATRNFSAAKSLLKKPDGVKES [CAMK2D] | 4.36 ± 0.067 | 4.33 ± 0.51 | – | – |
| TMPLYLEDDIRPDIKDDIYDPTYK [SCD] | 4.46 ± 0.3 | 4.68 ± 0.17 | – | – |
| TNLPKGACALLLTSVDHDRAPVVG [DLC1] | 2.97 ± 0.17 | 2.85 ± 0.3 | – | – |
| TNRWSFDGIDRWIKEIDEHAPGVP [RAB40C] | 3.91 ± 0.17 | 3.97 ± 0.22 | – | – |
| TPAITVSNSCPAELPNIKREISET [TFE3] | 5.16 ± 0.35 | 4.86 ± 0.22 | – | – |

| Sequence | protein stability index [1] | protein stability index [2] | protein stability index [3] | protein stability index [4] |
| --- | --- | --- | --- | --- |
| TPAMSSSSSSRVLLRQQLMRAQAQ [TFE3] | 3.65 ± 0.26 | 3.66 ± 0.42 | – | – |
| TPNSKYVKLNVGGSLHYTTLRTLT [KCTD13] | 2.23 ± 0.15 | 2.02 ± 0.25 | – | – |
| TPPEEQQEAEEPKARVLRSKSLCH [CDC25B] | 5.37 ± 0.26 | 5.37 ± 0.24 | – | – |
| TPSARRNYRIAGARLMRSNYPPPL [C6orf223] | 2.92 ± 0.14 | 3.08 ± 0.22 | – | – |
| TPSFSGDSSSSCSDHCITSSDMMD [VDR] | 5.11 ± 0.28 | 5.11 ± 0.12 | – | – |
| TQSNRTSRLIGKKMNRSVSLTIY [WEE1] | – | – | 2.19 ± 0.14 | 2.27 ± 0.15 |
| TRDLAGLRQFFKQLPSPPFLPAAG [CEBPD] | 2.56 ± 0.28 | 2.44 ± 0.048 | – | – |
| TRGRGGLLRDHIPRGKEELESLGG [MOG] | 4.72 ± 0.081 | 4.95 ± 0.19 | – | – |
| TSANKITLVSSGSGTMGAAKVTGE [FLOT1] | 4.63 ± 0.12 | 4.69 ± 0.26 | – | – |
| TSEGTTLSGVDLELVGSGYRMSLV [FCHO1] | 2.14 ± 0.48 | 2.29 ± 0.29 | – | – |
| TSFLQHPWDESGSGCLPPEPLFEA [FOXJ1] | 3.56 ± 0.22 | 3.62 ± 0.35 | – | – |
| TSQKVARKFWWKNVKMIVLICVIV [VAMP8] | 2.42 ± 0.31 | 2.15 ± 0.29 | – | – |
| TSSSTSGSSDKVYAHQMVRTDSRE [MLH1] | 5.08 ± 0.17 | 5.1 ± 0.17 | – | – |
| TTALLHYQLPQMPDVVVRSFMTWL [MED27] | 2.59 ± 0.32 | 2.62 ± 0.3 | – | – |
| TVEKDKVTGETRVLSSTTLLPRQP [PALM] | 4.86 ± 0.23 | 4.87 ± 0.084 | – | – |
| TVIFYGADSEQADIARMLYKDTCH [ZMYND11] | 2.28 ± 0.17 | 2.68 ± 0.4 | – | – |
| TWEHSNLEVNKPKNRYANVIAYDH [PTPRD] | 2.98 ± 0.27 | 3.02 ± 0.32 | – | – |
| TWGQIKKTTQEAEKLLERQGQAKT [CDK11A] | 4.98 ± 0.11 | 5.01 ± 0.072 | – | – |
| VAGILSLLLGTAYSFYLFHPLAYG [POMT2] | 3.16 ± 0.24 | 2.98 ± 0.3 | – | – |
| VASYILASHNGISYKDLDVIFGVE [TENT5D] | 2.93 ± 0.85 | 2.89 ± 1.4 | – | – |
